According to PMC314469, “Protein Interaction Networks by Proteome Peptide Scanning” (PLoS Biology, 2004):

Target: T1, Boi1 SH3 (BOI1_YEAST), P38041
T1 chain: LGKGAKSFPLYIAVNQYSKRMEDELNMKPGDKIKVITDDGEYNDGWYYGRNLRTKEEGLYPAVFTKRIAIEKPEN
Assay: SPOT array

| Binder | normalised SPOT signal, Boehringer light units (BLU); mean over the file's lines of this peptide |
| --- | --- |
| DKKKKKYPRKPKKN [YDR485C 332-345] | 223 |
| DKFIKLIPMRPVLI [YDR479C 286-299] | 117 |
| DNELKDEPEPPNLI [YGR093W 206-219] | 17.2 |
| DLQKKYEPSPPATH [YCR069W 34-47] | 114 |
| DKIFKTDPNEPAND [YDL174C 572-585] | 66.5 |
| DILKKESPDVPLFD [YBR155W 341-354] | 170 |
| DIKTRSVPKIPSIE [YBR163W 320-333] | 344 |
| DIPLKQVPENPMPT [YIL155C 374-387] | 110 |

Now from value to binder:

| normalised SPOT signal, Boehringer light units (BLU); mean over the file's lines of this peptide | Binder |
| --- | --- |
| 14100 | DIPRRYIPITPADL [YMR126C 79-92] |
| 164 | DLKKKYAPDPPITH [YNR028W 35-48] |
| 106 | DQLNRLLPNLPEEE [YJR090C 138-151] |
| 352 | DLSLRYAPNLPRVI [YLL048C 1385-1398] |
| 2880 | DLDWRKIPFLPKEI [YLR427W 487-500] |
| 0 | DPSDKSLPQQPFHK [YJR006W 304-317] |

Target: T2, Boi2 SH3 (BOI2_YEAST), P39969
T2 chain: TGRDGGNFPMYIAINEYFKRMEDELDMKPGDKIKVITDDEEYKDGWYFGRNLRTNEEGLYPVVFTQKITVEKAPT
Assay: SPOT array

| Binder | normalised SPOT signal, Boehringer light units (BLU); mean over the file's lines of this peptide |
| --- | --- |
| DKKKKKYPRKPKKN [YDR485C 332-345] | 0 |
| DKFIKLIPMRPVLI [YDR479C 286-299] | 0.3 |
| DNELKDEPEPPNLI [YGR093W 206-219] | 26 |
| DLQKKYEPSPPATH [YCR069W 34-47] | 2.8 |
| DKIFKTDPNEPAND [YDL174C 572-585] | 26.3 |
| DILKKESPDVPLFD [YBR155W 341-354] | 17.3 |
| DIKTRSVPKIPSIE [YBR163W 320-333] | 23.2 |
| DIPLKQVPENPMPT [YIL155C 374-387] | 12.3 |

Second part, the binder after the results:

| normalised SPOT signal, Boehringer light units (BLU); mean over the file's lines of this peptide | Binder |
| --- | --- |
| 52.6 | DIPRRYIPITPADL [YMR126C 79-92] |
| 21 | DLKKKYAPDPPITH [YNR028W 35-48] |
| 18.1 | DQLNRLLPNLPEEE [YJR090C 138-151] |
| 18.8 | DLSLRYAPNLPRVI [YLL048C 1385-1398] |
| 26.3 | DLDWRKIPFLPKEI [YLR427W 487-500] |
| 25.2 | DPSDKSLPQQPFHK [YJR006W 304-317] |

Target: T3, Myo5 SH3 (MYO5_YEAST), Q04439
T3 chain: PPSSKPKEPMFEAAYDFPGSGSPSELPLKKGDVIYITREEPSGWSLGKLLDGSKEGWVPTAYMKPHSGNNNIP
Assay: SPOT array

| Binder | normalised SPOT signal, Boehringer light units (BLU); mean over the file's lines of this peptide |
| --- | --- |
| DKKKKKYPRKPKKN [YDR485C 332-345] | 532 |
| DKFIKLIPMRPVLI [YDR479C 286-299] | 253 |
| DNELKDEPEPPNLI [YGR093W 206-219] | 179 |
| DLQKKYEPSPPATH [YCR069W 34-47] | 225 |
| DKIFKTDPNEPAND [YDL174C 572-585] | 99.1 |
| DILKKESPDVPLFD [YBR155W 341-354] | 146 |
| DIKTRSVPKIPSIE [YBR163W 320-333] | 102 |
| DIPLKQVPENPMPT [YIL155C 374-387] | 62.9 |

Next, values leading:

| normalised SPOT signal, Boehringer light units (BLU); mean over the file's lines of this peptide | Binder |
| --- | --- |
| 33 | DIPRRYIPITPADL [YMR126C 79-92] |
| 186 | DLKKKYAPDPPITH [YNR028W 35-48] |
| 47.5 | DQLNRLLPNLPEEE [YJR090C 138-151] |
| 250 | DLSLRYAPNLPRVI [YLL048C 1385-1398] |
| 250 | DLDWRKIPFLPKEI [YLR427W 487-500] |
| 192 | DPSDKSLPQQPFHK [YJR006W 304-317] |

Target: T4, Rvs167 SH3 (RV167_YEAST), P39743
T4 chain: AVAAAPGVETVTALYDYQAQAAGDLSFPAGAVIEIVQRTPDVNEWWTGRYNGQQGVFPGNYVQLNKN
Assay: SPOT array

| Binder | normalised SPOT signal, Boehringer light units (BLU); mean over the file's lines of this peptide |
| --- | --- |
| DKKKKKYPRKPKKN [YDR485C 332-345] | 66.5 |
| DKFIKLIPMRPVLI [YDR479C 286-299] | 39 |
| DNELKDEPEPPNLI [YGR093W 206-219] | 25.3 |
| DLQKKYEPSPPATH [YCR069W 34-47] | 40.7 |
| DKIFKTDPNEPAND [YDL174C 572-585] | 47.5 |
| DILKKESPDVPLFD [YBR155W 341-354] | 0 |
| DIKTRSVPKIPSIE [YBR163W 320-333] | 52200 |
| DIPLKQVPENPMPT [YIL155C 374-387] | 26 |

Second part, the binder after the results:

| normalised SPOT signal, Boehringer light units (BLU); mean over the file's lines of this peptide | Binder |
| --- | --- |
| 956 | DIPRRYIPITPADL [YMR126C 79-92] |
| 27.7 | DLKKKYAPDPPITH [YNR028W 35-48] |
| 682 | DQLNRLLPNLPEEE [YJR090C 138-151] |
| 41.9 | DLSLRYAPNLPRVI [YLL048C 1385-1398] |
| 177 | DLDWRKIPFLPKEI [YLR427W 487-500] |
| 55.1 | DPSDKSLPQQPFHK [YJR006W 304-317] |

target: Sho1 SH3 (SHO1_YEAST), P40073; assay: SPOT array
Sequence (P40073 295-366): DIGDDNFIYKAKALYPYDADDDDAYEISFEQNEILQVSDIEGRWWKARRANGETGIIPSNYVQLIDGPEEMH

| Binder | normalised SPOT signal, Boehringer light units (BLU); mean over the file's lines of this peptide |
| --- | --- |
| DKKKKKYPRKPKKN [YDR485C 332-345] | 114 |
| DKFIKLIPMRPVLI [YDR479C 286-299] | 112 |
| DNELKDEPEPPNLI [YGR093W 206-219] | 32.3 |
| DLQKKYEPSPPATH [YCR069W 34-47] | 32.6 |
| DKIFKTDPNEPAND [YDL174C 572-585] | 16.7 |
| DILKKESPDVPLFD [YBR155W 341-354] | 26.9 |
| DIKTRSVPKIPSIE [YBR163W 320-333] | 31.3 |
| DIPLKQVPENPMPT [YIL155C 374-387] | 15 |

Next, values leading:

| normalised SPOT signal, Boehringer light units (BLU); mean over the file's lines of this peptide | Binder |
| --- | --- |
| 33.7 | DIPRRYIPITPADL [YMR126C 79-92] |
| 4.2 | DLKKKYAPDPPITH [YNR028W 35-48] |
| 12000 | DQLNRLLPNLPEEE [YJR090C 138-151] |
| 35 | DLSLRYAPNLPRVI [YLL048C 1385-1398] |
| 1070 | DLDWRKIPFLPKEI [YLR427W 487-500] |
| 397 | DPSDKSLPQQPFHK [YJR006W 304-317] |

Target: T5, Yfr024 SH3 (LSB3_YEAST), P43603
T5 chain: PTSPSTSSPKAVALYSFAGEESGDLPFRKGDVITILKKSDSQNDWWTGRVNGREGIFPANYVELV
Assay: SPOT array

| Binder | normalised SPOT signal, Boehringer light units (BLU); mean over the file's lines of this peptide |
| --- | --- |
| DKKKKKYPRKPKKN [YDR485C 332-345] | 245 |
| DKFIKLIPMRPVLI [YDR479C 286-299] | 1380 |
| DNELKDEPEPPNLI [YGR093W 206-219] | 0 |
| DLQKKYEPSPPATH [YCR069W 34-47] | 0 |
| DKIFKTDPNEPAND [YDL174C 572-585] | 0 |
| DILKKESPDVPLFD [YBR155W 341-354] | 0 |
| DIKTRSVPKIPSIE [YBR163W 320-333] | 48300 |
| DIPLKQVPENPMPT [YIL155C 374-387] | 13.5 |

Further lines, results first:

| normalised SPOT signal, Boehringer light units (BLU); mean over the file's lines of this peptide | Binder |
| --- | --- |
| 748 | DIPRRYIPITPADL [YMR126C 79-92] |
| 16.5 | DLKKKYAPDPPITH [YNR028W 35-48] |
| 12300 | DQLNRLLPNLPEEE [YJR090C 138-151] |
| 156 | DLSLRYAPNLPRVI [YLL048C 1385-1398] |
| 790 | DLDWRKIPFLPKEI [YLR427W 487-500] |
| 39.2 | DPSDKSLPQQPFHK [YJR006W 304-317] |

Target: T6, Yhr016c SH3 (YSC84_YEAST), P32793
T6 chain: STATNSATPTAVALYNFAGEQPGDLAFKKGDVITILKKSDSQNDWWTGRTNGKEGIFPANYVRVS
Assay: SPOT array

| Binder | normalised SPOT signal, Boehringer light units (BLU); mean over the file's lines of this peptide |
| --- | --- |
| DKKKKKYPRKPKKN [YDR485C 332-345] | 15.7 |
| DKFIKLIPMRPVLI [YDR479C 286-299] | 95.2 |
| DNELKDEPEPPNLI [YGR093W 206-219] | 16.3 |
| DLQKKYEPSPPATH [YCR069W 34-47] | 37.1 |
| DKIFKTDPNEPAND [YDL174C 572-585] | 14.1 |
| DILKKESPDVPLFD [YBR155W 341-354] | 18.3 |
| DIKTRSVPKIPSIE [YBR163W 320-333] | 36000 |
| DIPLKQVPENPMPT [YIL155C 374-387] | 4.6 |

Results, then the binder that gave them:

| normalised SPOT signal, Boehringer light units (BLU); mean over the file's lines of this peptide | Binder |
| --- | --- |
| 116 | DIPRRYIPITPADL [YMR126C 79-92] |
| 14.6 | DLKKKYAPDPPITH [YNR028W 35-48] |
| 23200 | DQLNRLLPNLPEEE [YJR090C 138-151] |
| 19.3 | DLSLRYAPNLPRVI [YLL048C 1385-1398] |
| 154 | DLDWRKIPFLPKEI [YLR427W 487-500] |
| 36.7 | DPSDKSLPQQPFHK [YJR006W 304-317] |
